Test results from patent publication US20020168363A1, “Integrin/adhesion antagonists” (Amgen Inc., priority 2000, published 2002).

Molecular target: GPIIb/IIIa (UniProt P08514)
Experiment: inhibition of hu Fibrinogen-Ru binding

Substance Fibrinogen has an IC50 of 10.5 nM and a Ki of 5.26 nM.
